# Test results reported in patent US20180362665A1.
# Tests used:
# [1] = target: human ADAMTS13 (in normal human plasma) (human) (UniProt Q76LX8); experiment: sandwich ELISA, antibody coated 10 to 0.02 µg/mL, constant 15% NHP, detection with biotinylated 17G2 and 19H4
# [2] = target: human ADAMTS13 (in normal human plasma) (human) (UniProt Q76LX8); experiment: cell-based or functional assay
# human ADAMTS13 (in normal human plasma) (human), sequence (Q76LX8 75-1427): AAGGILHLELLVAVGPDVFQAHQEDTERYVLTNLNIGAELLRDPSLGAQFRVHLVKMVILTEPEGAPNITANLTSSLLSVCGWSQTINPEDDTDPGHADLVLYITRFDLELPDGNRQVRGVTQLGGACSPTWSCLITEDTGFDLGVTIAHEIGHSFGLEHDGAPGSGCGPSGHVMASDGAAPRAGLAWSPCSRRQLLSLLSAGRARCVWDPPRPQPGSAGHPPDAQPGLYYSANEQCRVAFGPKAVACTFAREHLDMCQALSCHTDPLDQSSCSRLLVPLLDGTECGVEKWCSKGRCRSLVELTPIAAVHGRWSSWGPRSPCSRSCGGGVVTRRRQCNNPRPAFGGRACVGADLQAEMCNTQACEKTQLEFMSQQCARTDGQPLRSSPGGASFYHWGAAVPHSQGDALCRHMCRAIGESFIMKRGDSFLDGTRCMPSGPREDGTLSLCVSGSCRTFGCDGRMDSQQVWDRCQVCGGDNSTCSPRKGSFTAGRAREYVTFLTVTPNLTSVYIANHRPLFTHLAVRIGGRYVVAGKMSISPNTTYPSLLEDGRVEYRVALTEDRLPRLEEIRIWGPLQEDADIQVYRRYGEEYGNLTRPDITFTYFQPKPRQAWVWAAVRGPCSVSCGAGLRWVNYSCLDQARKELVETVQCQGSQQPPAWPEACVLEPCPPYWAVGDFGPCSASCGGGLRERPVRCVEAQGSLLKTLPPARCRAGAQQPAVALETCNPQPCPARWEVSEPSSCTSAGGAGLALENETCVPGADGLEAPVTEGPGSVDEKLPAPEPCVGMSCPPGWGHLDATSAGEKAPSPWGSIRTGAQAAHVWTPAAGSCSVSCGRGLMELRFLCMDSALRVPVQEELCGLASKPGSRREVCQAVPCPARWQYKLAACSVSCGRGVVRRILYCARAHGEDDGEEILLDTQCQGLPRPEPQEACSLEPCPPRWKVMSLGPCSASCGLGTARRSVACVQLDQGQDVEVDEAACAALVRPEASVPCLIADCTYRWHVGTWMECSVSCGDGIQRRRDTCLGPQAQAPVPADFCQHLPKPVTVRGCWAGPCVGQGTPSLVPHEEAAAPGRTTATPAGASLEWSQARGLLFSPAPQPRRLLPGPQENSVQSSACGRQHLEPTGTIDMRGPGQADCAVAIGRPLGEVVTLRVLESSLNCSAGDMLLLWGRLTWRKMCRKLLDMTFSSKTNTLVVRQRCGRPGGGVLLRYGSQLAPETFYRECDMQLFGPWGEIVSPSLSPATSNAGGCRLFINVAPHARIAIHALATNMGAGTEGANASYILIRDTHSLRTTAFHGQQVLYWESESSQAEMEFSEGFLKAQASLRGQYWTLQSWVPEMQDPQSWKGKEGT
binder,measurement,setting,value
"anti-ADAMTS13 monoclonal antibody 17C7 (antibody, V domains shown) VH: EVQLVESGGDLVKSGGSLKLSCAASGFIFSNYAMSWVRQTPEKRLEWGATITTGGFYTFYSDSVKGRFTISRDNAKNTLYLQMSSLRSEDTAMYYCARHRYDDYYALDYWGQGTSVTVSS VL: ENVLTQSPAIMSTSPGEKVTMTCNVSSSVSYMRWFQQKSSTSPKLWIYDTSKLASGVPGRFSGSGSGHSYSLTISSMEADDVATYYCFQGNGYPLTFGAGTKLELK",half maximal binding (Kd),[1],0.51 µg/mL
same,"half maximal inhibitory concentration (IC50) of ADAMTS13 activity in normal human plasma, FRETS-VWF73 assay",[2],0.47 µg/mL
